For test [1], the target named is T1, human C5a receptor (human, UniProt P21730 1-350).
T1 chain: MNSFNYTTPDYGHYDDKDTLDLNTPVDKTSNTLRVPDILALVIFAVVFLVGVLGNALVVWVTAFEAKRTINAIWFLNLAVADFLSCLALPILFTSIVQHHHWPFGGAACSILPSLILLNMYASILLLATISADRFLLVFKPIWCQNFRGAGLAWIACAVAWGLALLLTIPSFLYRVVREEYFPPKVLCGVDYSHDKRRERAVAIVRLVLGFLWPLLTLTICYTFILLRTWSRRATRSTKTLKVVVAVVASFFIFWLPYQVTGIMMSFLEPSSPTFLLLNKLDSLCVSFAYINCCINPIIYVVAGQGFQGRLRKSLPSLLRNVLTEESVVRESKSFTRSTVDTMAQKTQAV
Briefly: cell-based or functional assay.

The target in test [2] is T1, human C5a receptor. In words: 125I-C5a displacement, human neutrophils. As to the method:
The ability of humanized Abs to inhibit ¹²⁵I-labelled C5a binding to L1.2 cells transfected with hC5aR gene or human neutrophils was tested as described below. Recombinant human C5a was obtained from Sigma Chemical Co. (St. Louis, Mo.). ¹²⁵I-Bolton-Hunter-labelled complement C5a was purchased from NEN-Dupont (Boston, Mass.), with a specific activity of 2200 Ci/mM. Briefly, L1.2/hC5aR stable transfectants were grown for several days prior to an experiment then treated overnight with 5 mM butyric acid to stimulate hC5aR expression prior to the binding assay. Human neutrophils were purified from venous blood collected from healthy volunteers. Neutrophils were separated from other leukocytes by percoll density centrifugation followed by a red blood cell lysis step. Both cell types were washed once in PBS and resuspended in binding buffer (50 mM Hepes, pH 7.5, 1 mM CaCl₂, 5 mM MgCl₂, 0.5% BSA) at a concentration of 1×10⁷/ml. Aliquots of 40 μl (4×10⁵ cells) were dispensed into 96 well microtitre plates, followed by the addition of cold competitor (antibody or human C5a). Cells and cold competitor were incubated for 15 min at room temperature before-radiolabelled C5a was added to a final concentration of 0.4 nM. The final reaction volume was 120 μl. After 60 min incubation at room temperature, the cells were washed three times with 150 μl of binding buffer containing 0.15 M NaCl. Cell pellets were then counted on a TopCount Scintillation Counter (Packard). Samples were assayed in triplicate at each of 6-8 concentrations. Each antibody was tested in at least 3 separate assays. The number of counts in each sample was expressed as a percentage of the maximum ¹²⁵I-C5a binding observed in wells with no added cold competitor after subtraction of background.
Results of this analysis (the displacement curves) for each of the humanized antibodies compared to the mouse antibody 7F3 in human neutrophils and L1.2/hC5aR transfectants are given in FIGS. 11 and 12 respectively. […] These values were obtained using Graphpad Prism software fitting the data to the non-linear equation for one site competition.

The target in test [3] is T2, peptide 8 (12 mer from the 2nd extracellular loop of human C5aR) (human).
T2 construct: worked out from 22 12 mers offset by one over 173-205; also called peptide no
T2 peptide: Biotin-SGSGEYFPPKVLCGVD
Briefly: peptide ELISA, biotin peptide on streptavidin plate. The source says:
(§1) A set of 22 overlapping peptides (12 mers), each offset by 1 residue from the next, spanning the second extracellular loop (3rd extracellular domain) of human C5aR was synthesised (Mimotopes, Melbourne). Each peptide was made with a biotin group and 4-amino acid linker (SGSG) at its N-terminus. One peptide synthesised, no. 23, was a 33 mer, representing the full length of the 2nd extracellular loop of hC5aR (residues 173-205 from SEQ ID NO:37), also had biotin-SGSG at the N-terminus.
(§2) The experiment was conducted by binding the peptides to a 384-well streptavidin-coated plate then incubating the antibodies with the peptides and detecting bound antibody with an anti-mouse IgG conjugated to horse radish peroxidase (HRP) as follows. Each peptide was dissolved in 200 μl of 60% DMSO to a concentration of 10 mg/ml. Peptides were further diluted 1:1000 to a working strength of 10 μg/ml with PBS/Tween 20/azide solution (0.1% w/v sodium azide in PBS/0.05% Tween 20).
(§3) A 384 well streptavidin-coated plate (Nunc) was blocked with 20 μl of blocking buffer (1% w/v BSA in PBS) per well. The plate was washed 4 times with PBS/Tween20 buffer (0.1% v/v Tween 20 in PBS). 20 μl of diluted peptide solution was transferred into a well and the plate incubated for 1 hour at room temperature. After washing the plate 4 times (as above) 20 μl antibody (0.5, 1, 1.25, 2.5 or 5 μg/ml) was added to the well and the plate was incubated for 1 hour at 20° C. The plate was washed 4 times as above then 20 μlHRP-conjugated anti-mouse IgG (1:5000 dilution in PBS/Tween 20) was added to each well. After a 1 hour incubation at room temperature the plate was washed 3 times (as above) then twice with PBS to remove traces of Tween. The presence of peroxidase was detected by adding 20 μl of freshly prepared TMB Substrate reagent (BD Opt EIA) to each well and incubating at room temperature for 20 min. Finally the plate was read at 650 nm/450 nm.

Test [4] concerns the target T3, peptide 10 (12 mer from the 2nd extracellular loop of human C5aR) (human).
T3 construct: worked out from 22 12 mers offset by one over 173-205; also called peptide no; 10
T3 peptide: Biotin-SGSGFPPKVLCGVDYS
The description is as above.
Text: as §1, §2, §3

In test [5] the target is T4, peptide 14 (12 mer from the 2nd extracellular loop of human C5aR) (human).
T4 construct: worked out from 22 12 mers offset by one over 173-205; also called peptide no; 14
T4 peptide: Biotin-SGSGVLCGVDYSHDKR
Described as above.
Text: as §1, §2, §3

Test [6] concerns the target T5, peptide 17 (12 mer from the 2nd extracellular loop of human C5aR) (human).
T5 construct: worked out from 22 12 mers offset by one over 173-205; also called peptide no; 17
T5 peptide: Biotin-SGSGGVDYSHDKRRER
The test is described as above.
Text: as §1, §2, §3

For test [7], the target named is T6, peptide 18 (12 mer from the 2nd extracellular loop of human C5aR) (human).
T6 construct: worked out from 22 12 mers offset by one over 173-205; also called peptide no; 18
T6 peptide: Biotin-SGSGVDYSHDKRRERA
The description is as above.
Text: as §1, §2, §3

The target of test [8] is T7, peptide 20 (12 mer from the 2nd extracellular loop of human C5aR) (human).
T7 construct: worked out from 22 12 mers offset by one over 173-205; also called peptide no; 20
T7 peptide: Biotin-SGSGYSHDKRRERAVA
The description is as above.
Text: as §1, §2, §3

Test [9] has as its target T8, peptide 22 (12 mer from the 2nd extracellular loop of human C5aR) (human).
T8 construct: worked out from 22 12 mers offset by one over 173-205; also called peptide no; 22
T8 peptide: Biotin-SGSGHDKRRERAVAIV
Described as above.
Text: as §1, §2, §3

The results in this text go back to patent US20110190477A1 (G2 INFLAMMATION, published 2011).

No end group written: not given here. *: point of attachment. Biotin = O=C1N[C@H]2[C@H](CS[C@H]2CCCCC(=O)*)N1

B1: humanized anti-C5aR antibody hAb-J (antibody, human IgG4 S228P, kappa)
light: DVVMTQSPLSLPVTLGEPASISCRSSQSLVHSNGNTYLHWYLQKPGQSPQLLIYKVSNRFSGVPDRFSGSGSGTDFTLKISRVEAEDVGVYFCSQSTLVPLTFGQGTKLEIKTVAAPSVFIFPPSDEQLKSGTASVVCLLNNFYPREAKVQWKVDNALQSGNSQESVTEQDSKDSTYSLSSTLTLSKADYEKHKVYACEVTHQGLSSPVTKSFNRGEC
heavy: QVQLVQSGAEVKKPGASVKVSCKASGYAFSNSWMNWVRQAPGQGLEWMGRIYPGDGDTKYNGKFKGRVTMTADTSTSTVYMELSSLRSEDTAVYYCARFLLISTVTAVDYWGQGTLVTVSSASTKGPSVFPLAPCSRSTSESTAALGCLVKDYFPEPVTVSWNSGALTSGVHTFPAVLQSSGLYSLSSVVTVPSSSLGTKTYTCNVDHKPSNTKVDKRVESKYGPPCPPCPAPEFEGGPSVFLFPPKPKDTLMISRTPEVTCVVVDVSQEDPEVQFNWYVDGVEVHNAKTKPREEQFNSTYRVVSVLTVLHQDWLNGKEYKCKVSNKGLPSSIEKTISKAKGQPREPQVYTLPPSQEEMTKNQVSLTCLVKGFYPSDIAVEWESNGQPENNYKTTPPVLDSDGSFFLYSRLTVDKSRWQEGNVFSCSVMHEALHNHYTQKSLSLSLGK
notes: also called antibody J
What is called EC50 is the concentration at which the effect is half-maximal. Turning to B1, the “IC50, C5a-induced migration of hC5aR/L1.2 cells” value (from here on “IC50, C5a-induced migration”) in the test with human C5a receptor [1] was determined as 0.6 µg/mL. Moreover, the “antibody concentration that completely inhibited hC5aR/L1.2 transfectant migration” value with human C5a receptor [1] worked out at 5 µg/mL. Also, the “blocking of human neutrophil migration towards C5a at 5 µg/ml antibody” value with human C5a receptor [1] came out at 82%. For the same molecule, the EC50 with human C5a receptor [2] was found to be 4.11 nM. Besides, the binding result in [3], in test [4], in test [5], in test [6], in test [7] and in test [8] was “no binding” in each case. For the same molecule, the binding result in test [9] is recorded as “no binding”.

B2: mouse anti-C5aR monoclonal antibody 7F3 (antibody, V domains shown)
VH: QVQLQQSGPELVKPGASVKISCKASGYAFSNSWMNWVKQRPGKGLEWIGRIYPGDGDTKYNGKFKGKATLTADKSSSTAYMQLSSLTSEDSAVYFCARFLLISTVTAVDYWGQGTTLTVSS
VL: DVVMTQSPLSLPVSLGNQASISCRSSQSLVHSNGNTYLHWYLQKPGQSPKLLIYKVSNRFSGVPDRFSGSGSGTDFSLKISRVEAEDLGVYFCSQSTLVPLTFGAGTKLELK
notes: Mouse monoclonal from hybridoma ECACC 00110609; also called m7F3; mouse 7F3
Consider B2, for which the “IC50, C5a-induced migration” value with human C5a receptor [1] was found to be 0.5 µg/mL. In addition, the “antibody concentration that completely blocked migration of human neutrophils induced by 10 nM C5a” value with human C5a receptor [1] was 10 µg/mL. Also, in the test with human C5a receptor [1], the “antibody concentration that completely inhibited hC5aR/L1.2 transfectant migration” value was determined as 5 µg/mL. In addition, the “blocking of human neutrophil migration towards C5a at 5 µg/ml antibody” value with human C5a receptor [1] was determined as 97%. Further, the EC50 with human C5a receptor [2] turned out to be 0.54 nM. Moreover, the binding result in test [3], in test [4], in [5], in test [6], in test [7] and in [8] was “no binding” throughout. Besides, in test [9], the binding result is reported as “no binding”.

B3: humanized anti-C5aR antibody hAb-Q (antibody, human IgG4 S228P, kappa)
light: DVVMTQSPLSLPVTLGEPASISCRSSQSLVHSNGNTYLHWYLQKPGQSPQLLIYKVSNRFSGVPDRFSGSGSGTDFTLKISRVEAEDVGVYFCSQSTLVPLTFGQGTKLEIKRTVAAPSVFIFPPSDEQLKSGTASVVCLLNNFYPREAKVQWKVDNALQSGNSQESVTEQDSKDSTYSLSSTLTLSKADYEKHKVYACEVTHQGLSSPVTKSFNRGEC
heavy: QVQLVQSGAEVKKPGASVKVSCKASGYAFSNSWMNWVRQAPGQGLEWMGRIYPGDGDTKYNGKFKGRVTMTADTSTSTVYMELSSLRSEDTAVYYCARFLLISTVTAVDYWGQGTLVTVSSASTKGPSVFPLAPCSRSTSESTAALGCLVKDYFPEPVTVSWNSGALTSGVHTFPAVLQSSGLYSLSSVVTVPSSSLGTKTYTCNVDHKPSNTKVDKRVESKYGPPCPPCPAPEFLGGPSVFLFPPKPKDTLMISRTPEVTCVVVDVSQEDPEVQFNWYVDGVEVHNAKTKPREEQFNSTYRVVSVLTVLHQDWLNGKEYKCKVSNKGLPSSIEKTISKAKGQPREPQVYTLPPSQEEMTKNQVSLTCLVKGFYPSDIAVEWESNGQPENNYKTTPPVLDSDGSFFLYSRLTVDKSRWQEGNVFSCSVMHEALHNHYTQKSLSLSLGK
notes: IgG4 with the Ser228Pro mutation; also called antibody Q; anti-C5aR ab
For B3, in the test with human C5a receptor [1], the “EC50 for inhibition of C5a-induced human neutrophil migration” value worked out at 0.03 µg/mL. The “IC50, C5a-induced migration” value with human C5a receptor [1] is 0.7 µg/mL. Further, in the test with human C5a receptor [1], the “IC50, prevention of C5a-induced CD11b up-regulation on neutrophils in whole human blood (100 nM C5a)” value is about 10.7 µg/mL. For the same molecule, the “IC50, prevention of C5a-induced loss of CD62L on neutrophils in whole human blood (100 nM C5a)” value in the test with human C5a receptor [1] is about 5.4 µg/mL. For the same molecule, in the test with human C5a receptor [1], the “antibody concentration that completely inhibited hC5aR/L1.2 transfectant migration” value came to 5 µg/mL. In the test with human C5a receptor [2], this molecule displayed a concentration giving a half-maximal response (EC50) of 3.5 nM. In addition, the binding result in test [3], in [4], in test [5], in test [6], in test [7] and in test [8] was “no binding” in each case. In addition, the binding result in test [9] is on record as “no binding”.
